Measured values: the supplement of paper PMC9112550, “Optimization of the antimicrobial peptide Bac7 by deep mutational scanning” (BMC Biology, 2022)

Test system: Escherichia coli TOP10
Assay: shrunken log2 fold change of peptide-encoding DNA abundance (4.5 h post-induction vs induction); higher = less antimicrobial activity (less host growth inhibition)
Settings: time post-induction: 4.5 h; library: site-saturation at positions 5, 18, 19, 20
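Note: peptides expressed intracellularly from a pBAD plasmid library in pooled LB shake-flask culture, induced with 0.3% L-arabinose, DNA abundance read by NGS, three biological replicates, DESeq2 with apeglm shrinkage.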

Sequence	shrunken log2 fold change
RRIRGRPPRLPRPRPRPPVMPRP	0.333
RRIRGRPPRLPRPRPRPPVWPRP	0.861
RRIRGRPPRLPRPRPRPPWCPRP	0.491
RRIRGRPPRLPRPRPRPPYWPRP	0.355
RRIRGRPPRLPRPRPRPQCNPRP	0.203
RRIRGRPPRLPRPRPRPQCYPRP	-0.0337
RRIRGRPPRLPRPRPRPQDHPRP	0.254
RRIRGRPPRLPRPRPRPQEMPRP	0.0954
RRIRGRPPRLPRPRPRPQFIPRP	0.0876
RRIRGRPPRLPRPRPRPQICPRP	0.156
RRIRGRPPRLPRPRPRPQIIPRP	0.203
RRIRGRPPRLPRPRPRPQIQPRP	0.0796
RRIRGRPPRLPRPRPRPQKDPRP	0.346
RRIRGRPPRLPRPRPRPQKFPRP	-0.0494
RRIRGRPPRLPRPRPRPQLIPRP	0.139
RRIRGRPPRLPRPRPRPQLKPRP	0.404
RRIRGRPPRLPRPRPRPQLQPRP	0.577
RRIRGRPPRLPRPRPRPQLVPRP	0.0859
RRIRGRPPRLPRPRPRPQMAPRP	0.923
RRIRGRPPRLPRPRPRPQMDPRP	0.291
RRIRGRPPRLPRPRPRPQNGPRP	3.22
RRIRGRPPRLPRPRPRPQNNPRP	-0.0456
RRIRGRPPRLPRPRPRPQPCPRP	0.466
RRIRGRPPRLPRPRPRPQPEPRP	0.704
RRIRGRPPRLPRPRPRPQPNPRP	0.679

Sequence	shrunken log2 fold change
RRIRGRPPRLPRPRPRPQPQPRP	0.706
RRIRGRPPRLPRPRPRPQQEPRP	0.0132
RRIRGRPPRLPRPRPRPQRMPRP	0.307
RRIRGRPPRLPRPRPRPQSCPRP	0.195
RRIRGRPPRLPRPRPRPQSMPRP	0.276
RRIRGRPPRLPRPRPRPQSSPRP	0.000815
RRIRGRPPRLPRPRPRPQTAPRP	0.205
RRIRGRPPRLPRPRPRPQVSPRP	0.0928
RRIRGRPPRLPRPRPRPQWIPRP	0.518
RRIRGRPPRLPRPRPRPQWYPRP	0.25
RRIRGRPPRLPRPRPRPQYWPRP	0.122
RRIRGRPPRLPRPRPRPRHHPRP	2.5
RRIRGRPPRLPRPRPRPRIDPRP	0.731
RRIRGRPPRLPRPRPRPRKYPRP	0.0397
RRIRGRPPRLPRPRPRPRMAPRP	1.06
RRIRGRPPRLPRPRPRPRMCPRP	0.197
RRIRGRPPRLPRPRPRPRMRPRP	1.38
RRIRGRPPRLPRPRPRPRMTPRP	1.26
RRIRGRPPRLPRPRPRPRMVPRP	0.643
RRIRGRPPRLPRPRPRPRNGPRP	0.343
RRIRGRPPRLPRPRPRPRNKPRP	0.765
RRIRGRPPRLPRPRPRPRNSPRP	0.114
RRIRGRPPRLPRPRPRPRPEPRP	0.667
RRIRGRPPRLPRPRPRPRQFPRP	0.354
RRIRGRPPRLPRPRPRPRQGPRP	0.654

Sequence	shrunken log2 fold change
RRIRGRPPRLPRPRPRPRQYPRP	-0.0954
RRIRGRPPRLPRPRPRPRTNPRP	0.588
RRIRGRPPRLPRPRPRPRWCPRP	0.351
RRIRGRPPRLPRPRPRPSCFPRP	0.504
RRIRGRPPRLPRPRPRPSDYPRP	0.0378
RRIRGRPPRLPRPRPRPSEAPRP	0.848
RRIRGRPPRLPRPRPRPSFAPRP	0.723
RRIRGRPPRLPRPRPRPSFPPRP	-0.0674
RRIRGRPPRLPRPRPRPSIEPRP	0.36
RRIRGRPPRLPRPRPRPSKGPRP	-0.403
RRIRGRPPRLPRPRPRPSKRPRP	0.231
RRIRGRPPRLPRPRPRPSMAPRP	0.749
RRIRGRPPRLPRPRPRPSMCPRP	0.37
RRIRGRPPRLPRPRPRPSNDPRP	0.702
RRIRGRPPRLPRPRPRPSPHPRP	0.435
RRIRGRPPRLPRPRPRPSPIPRP	0.411
RRIRGRPPRLPRPRPRPSPNPRP	0.244
RRIRGRPPRLPRPRPRPSPTPRP	0.828
RRIRGRPPRLPRPRPRPSQGPRP	-0.187
RRIRGRPPRLPRPRPRPSRSPRP	0.253
RRIRGRPPRLPRPRPRPSTMPRP	0.21
RRIRGRPPRLPRPRPRPSVGPRP	0.333
RRIRGRPPRLPRPRPRPSVKPRP	0.293
RRIRGRPPRLPRPRPRPSVSPRP	0.166
RRIRGRPPRLPRPRPRPSWHPRP	0.0802
